One series concerns the target T1, LlGH31_u1 (Lactococcus cremoris, UniProt A2RM80).
T1 construct: gene xylS; full length (no signal peptide), N-terminal His tag, pET28a, E. coli BL21(DE3); Tyr99 of the adjacent protomer reaches the active site
T1 sequence (A2RM80 1-739): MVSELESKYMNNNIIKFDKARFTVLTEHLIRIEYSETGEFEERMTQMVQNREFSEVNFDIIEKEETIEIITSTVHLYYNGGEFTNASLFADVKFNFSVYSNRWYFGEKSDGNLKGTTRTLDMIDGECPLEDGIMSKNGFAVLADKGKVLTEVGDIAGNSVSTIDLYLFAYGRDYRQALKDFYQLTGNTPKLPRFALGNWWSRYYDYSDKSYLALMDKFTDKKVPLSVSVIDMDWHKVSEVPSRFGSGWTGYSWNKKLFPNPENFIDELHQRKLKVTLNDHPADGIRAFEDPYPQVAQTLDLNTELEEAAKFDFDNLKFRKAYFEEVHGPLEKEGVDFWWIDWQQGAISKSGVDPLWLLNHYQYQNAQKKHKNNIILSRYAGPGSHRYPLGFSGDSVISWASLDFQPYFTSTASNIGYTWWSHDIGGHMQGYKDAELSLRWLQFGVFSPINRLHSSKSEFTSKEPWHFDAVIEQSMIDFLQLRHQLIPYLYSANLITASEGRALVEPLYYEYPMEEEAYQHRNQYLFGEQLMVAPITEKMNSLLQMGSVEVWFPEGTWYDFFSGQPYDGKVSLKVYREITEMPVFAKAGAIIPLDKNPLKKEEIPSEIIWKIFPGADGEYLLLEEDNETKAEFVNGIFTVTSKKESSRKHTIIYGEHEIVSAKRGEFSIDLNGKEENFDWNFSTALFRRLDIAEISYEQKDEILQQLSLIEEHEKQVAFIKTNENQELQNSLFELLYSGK
Description: X-ray crystal structure of complex (soaked). Type of series: binding. Conditions: 100 mM glucose soak, 45 min; subsite −1; both α- and β-anomers modelled.

Series [1] concerns the target GH31_u1 protein from Lactococcus lactis subsp. cremoris MG1363 (LlGH31_u1), wild type (Lactococcus lactis subsp. cremoris MG1363). Kind of series: cryo-EM structure; single-particle analysis; 1.13 μM (as a hexamer) in 20 mM sodium phosphate buffer (pH 7.0), 300 mM NaCl.
Series [2] has the same target. Description: SEC; gel filtration on HiLoad 16/60 Superdex 200 prep grade for molecular weight determination; 20 mM sodium phosphate buffer (pH 7.0), 300 mM NaCl.
For series [3] the target is unchanged. Description: crystal structure; hanging-drop vapor diffusion at 20 °C, PEG 3350, sodium citrate pH 7.0; crystal form 1 (P2_(1), six molecules in the asymmetric unit) and crystal form 2 (P6_(3)22, one molecule, hexamer by symmetry); unliganded, glucose-soaked or cocrystallised with 10 mM ligands.
Series [4] has as its system O=[N+]([O-])c1ccc(O[C@H]2O[C@H](CO)[C@@H](O)[C@H](O)[C@H]2O)cc1. Description: purified protein. Conditions: 50 mM sodium phosphate pH 7.0, 50 mM NaCl.
Substrate in the series “purified protein”: O=[N+]([O-])c1ccc(O[C@H]2O[C@H](CO)[C@@H](O)[C@H](O)[C@H]2O)cc1
Kind of series: purified protein. Conditions: 50 mM sodium phosphate pH 7.0, 50 mM NaCl. This is another data set of the same source.

Turning to `OC[C@H]1OC(O)[C@H](O)[C@@H](O)[C@@H]1O` (some centres unmarked) [glucose], the “X-ray crystal structure of complex (soaked)” value at LlGH31_u1 was “we determined the crystal structure of WT in complex with glucose (WT-Glc)”.

What is called stoichiometry N is a count of units in the complex or per binding partner. In the case of “GH31_u1 protein from Lactococcus lactis subsp. cremoris MG1363 (LlGH31_u1), wild type (enzyme)”, the stoichiometry N in series [1], in series [2] and in series [3] was 6 in each case.

The Km is the substrate concentration at which the rate is half of its maximum. For “LlGH31_u1 (Lactococcus cremoris subsp. cremoris MG1363; Y99F)”, the Km in series [4] worked out at 28 ± 0.8 mM.

B1: LlGH31_u1 (Lactococcus cremoris subsp. cremoris MG1363) (protein)
chain: MVSELESKYMNNNIIKFDKARFTVLTEHLIRIEYSETGEFEERMTQMVQNREFSEVNFDIIEKEETIEIITSTVHLYYNGGEFTNASLFADVKFNFSVYSNRWYFGEKSDGNLKGTTRTLDMIDGECPLEDGIMSKNGFAVLADKGKVLTEVGDIAGNSVSTIDLYLFAYGRDYRQALKDFYQLTGNTPKLPRFALGNWWSRYYDYSDKSYLALMDKFTDKKVPLSVSVIDMDWHKVSEVPSRFGSGWTGYSWNKKLFPNPENFIDELHQRKLKVTLNDHPADGIRAFEDPYPQVAQTLDLNTELEEAAKFDFDNLKFRKAYFEEVHGPLEKEGVDFWWIDWQQGAISKSGVDPLWLLNHYQYQNAQKKHKNNIILSRYAGPGSHRYPLGFSGDSVISWASLDFQPYFTSTASNIGYTWWSHDIGGHMQGYKDAELSLRWLQFGVFSPINRLHSSKSEFTSKEPWHFDAVIEQSMIDFLQLRHQLIPYLYSANLITASEGRALVEPLYYEYPMEEEAYQHRNQYLFGEQLMVAPITEKMNSLLQMGSVEVWFPEGTWYDFFSGQPYDGKVSLKVYREITEMPVFAKAGAIIPLDKNPLKKEEIPSEIIWKIFPGADGEYLLLEEDNETKAEFVNGIFTVTSKKESSRKHTIIYGEHEIVSAKRGEFSIDLNGKEENFDWNFSTALFRRLDIAEISYEQKDEILQQLSLIEEHEKQVAFIKTNENQELQNSLFELLYSGK
The kcat is the maximal rate divided by the concentration of active sites. A word on the kcat/Km: it is the turnover number divided by the Michaelis constant. Consider B1, for which, in “purified protein”, the Michaelis constant (Km) stood at 20 ± 0.8 mM, the kcat stood at 31 s⁻¹ and the kcat/Km worked out at 1500 M⁻¹ s⁻¹.

The values above are taken from paper PMC9061262, “Structural basis of the strict specificity of a bacterial GH31 α-1,3-glucosidase for nigerooligosaccharides” (The Journal of Biological Chemistry, 2022).
